The record followed here is paper doi:10.1101/2021.06.17.448874.

Where “and” joins values, the source holds several entries; their conditions need not be identical. Equal values may be shown once.

In experiment [1] the target is microtubules polymerised from porcine brain tubulin, taxol-stabilised (porcine) (UniProt P02550). The experiment can be described thus: co-sedimentation.
Experiment [2] addresses subtilisin-digested microtubules (lacking E-hooks) (porcine) (UniProt P02550). The experiment can be described thus: co-sedimentation.

On to “MBP-MESP-1 (meiotic spindle 1) (natural protein)”, for which, in experiment [1], the shift to pellet (%) is 56.1% and 41.6%. Regarding “KLP-18 C-stalk (C-terminal half of the KLP-18 stalk) (domain or fragment)”, the shift to pellet (%) is 52.7% and 50.8% in experiment [1]; 26.7% in experiment [2].
